Laboratory results reported in paper PMC4968227.

Biological target: T1, PARK7, endogenous in SN4741 cells (mouse (endogenous in SN4741)), Q99LX0
T1 chain: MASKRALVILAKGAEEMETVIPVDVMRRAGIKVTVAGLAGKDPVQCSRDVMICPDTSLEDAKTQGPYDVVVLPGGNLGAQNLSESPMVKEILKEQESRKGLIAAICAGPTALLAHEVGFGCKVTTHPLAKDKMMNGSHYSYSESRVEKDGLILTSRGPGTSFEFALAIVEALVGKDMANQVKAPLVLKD
Test: cross-linking
Conditions: remark: other sources report otherwise

B1: PARK7, endogenous in SN4741 cells, Q99LX0 1-189 (natural protein)
chain: MASKRALVILAKGAEEMETVIPVDVMRRAGIKVTVAGLAGKDPVQCSRDVMICPDTSLEDAKTQGPYDVVVLPGGNLGAQNLSESPMVKEILKEQESRKGLIAAICAGPTALLAHEVGFGCKVTTHPLAKDKMMNGSHYSYSESRVEKDGLILTSRGPGTSFEFALAIVEALVGKDMANQVKAPLVLKD
stoichiometry N: 2
